Test [1] deals with FcRn receptor. Put plainly: FcRn binding, 'standard methods'.
For test [2], the target named is Myostatin (UniProt O14793). Kind of test: SPR (BIAcore), anti-human Fc capture, myostatin as analyte. (In SPR one partner is held on a chip, and binding of the other changes the refractive index at the surface.)
The next test has as its target Activin A (UniProt P08476). Kind of test: cell-based or functional assay.
In test [3] the target is Myostatin (UniProt O14793). Kind of test: cell-based or functional assay.
The target of test [4] is FcRn receptor. Kind of test: SPR.
The target of test [5] is Myostatin (UniProt O14793). Put plainly: SPR.

For four substances, Kd, Activin A IC50, cell-based assay for SMAD pathway (A204 luciferase reporter) and Myostatin IC50, cell-based assay for SMAD pathway (A204 luciferase reporter) results are on record in patent US20180362604A1.

Sequence of FcRn receptor (P55899 24-297, chain 1 of 2): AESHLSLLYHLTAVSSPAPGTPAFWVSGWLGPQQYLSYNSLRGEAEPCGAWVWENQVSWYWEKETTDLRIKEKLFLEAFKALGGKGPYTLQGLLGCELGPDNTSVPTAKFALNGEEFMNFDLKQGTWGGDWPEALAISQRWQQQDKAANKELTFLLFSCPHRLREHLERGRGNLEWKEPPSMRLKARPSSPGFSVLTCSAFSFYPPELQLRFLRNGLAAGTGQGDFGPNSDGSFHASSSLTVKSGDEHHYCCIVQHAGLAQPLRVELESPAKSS
Sequence of FcRn receptor (P61769 21-119, chain 2 of 2, further chain): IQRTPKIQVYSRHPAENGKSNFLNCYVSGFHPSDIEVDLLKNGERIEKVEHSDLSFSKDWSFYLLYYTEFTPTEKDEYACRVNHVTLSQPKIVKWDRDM
Sequence of Myostatin (O14793 267-375 limits assumed): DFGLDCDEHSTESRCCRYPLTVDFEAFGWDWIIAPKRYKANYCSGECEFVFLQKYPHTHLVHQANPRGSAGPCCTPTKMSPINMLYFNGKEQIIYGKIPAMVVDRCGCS
Sequence of Activin A (P08476 311-426): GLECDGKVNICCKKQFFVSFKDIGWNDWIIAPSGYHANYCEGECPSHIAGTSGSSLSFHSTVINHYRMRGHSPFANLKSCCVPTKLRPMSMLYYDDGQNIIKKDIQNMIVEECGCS

Turning to monoFS315ΔHBS-hFcLALA (Fc fusion), the Kd (commonly the concentration at which binding is half-saturated) came out at 36.7 nM in the test with FcRn receptor [1] and 0.0033 nM with Myostatin [2].
In turn, FS315R78E/K(82,84)E-hFcLALA (Fc fusion) yielded an Activin A IC50, cell-based assay for SMAD pathway (A204 luciferase reporter) with Activin A of 0.6 nM. This substance also returned a Myostatin IC50, cell-based assay for SMAD pathway (A204 luciferase reporter) with Myostatin [3] of 0.5 nM.
For the substance FS315ΔHBS-hFcLALA (Fc fusion), the equilibrium dissociation constant (Kd) in the test with FcRn receptor [4] was 48 nM; with Myostatin [5] it was 0.0174 nM; with FcRn receptor [1], 372 nM. In the test with Myostatin [3], this substance came in with a Myostatin IC50, cell-based assay for SMAD pathway (A204 luciferase reporter) of 0.4 nM.
In the test with Activin A, FS315K(81,82,84)E-hFcLALA (Fc fusion) yielded an Activin A IC50, cell-based assay for SMAD pathway (A204 luciferase reporter) of 1 nM. In addition, in the test with Myostatin [3], the Myostatin IC50, cell-based assay for SMAD pathway (A204 luciferase reporter) worked out at 0.4 nM.
